B1: Mothers against decapentaplegic homolog 4 (Homo sapiens), Q13485 (parent)
chain: MDNMSITNTPTSNDACLSIVHSLMCHRQGGESETFAKRAIESLVKKLKEKKDELDSLITAITTNGAHPSKCVTIQRTLDGRLQVAGRKGFPHVIYARLWRWPDLHKNELKHVKYCQYAFDLKCDSVCVNPYHYERVVSPGIDLSGLTLQSNAPSSMMVKDEYVHDFEGQPSLSTEGHSIQTIQHPPSNRASTETYSTPALLAPSESNATSTANFPNIPVASTSQPASILGGSHSEGLLQIASGPQPGQQQNGFTGQPATYHHNSTTTWTGSRTAPYTPNLPHHQNGHLQHHPPMPPHPGHYWPVHNELAFQPPISNHPAPEYWCSIAYFEMDVQVGETFKVPSSCPIVTVDGYVDPSGGDRFCLGQLSNVHRTEAIERARLHIGKGVQLECKGEGDVWVRCLSDHAVFVQSYYLDREAGRAPGDAVHKIYPSAYIKVFDLRQCHRQMQQQAATAQAAAAAQAAAVAGNIPGPGSVGGIAPAISLSAAAGIGVDDLRRLCILRMSFVKGWGPDYPRQSIKETPCWIEIHLHRALQLLDEVLHTMPIADPQPLD

Variants of: B1
Details: with ruvb1_human RUVBL1, Q9Y265
ruvb1_human RUVBL1, Q9Y265, sequence (Q9Y265 whole entry): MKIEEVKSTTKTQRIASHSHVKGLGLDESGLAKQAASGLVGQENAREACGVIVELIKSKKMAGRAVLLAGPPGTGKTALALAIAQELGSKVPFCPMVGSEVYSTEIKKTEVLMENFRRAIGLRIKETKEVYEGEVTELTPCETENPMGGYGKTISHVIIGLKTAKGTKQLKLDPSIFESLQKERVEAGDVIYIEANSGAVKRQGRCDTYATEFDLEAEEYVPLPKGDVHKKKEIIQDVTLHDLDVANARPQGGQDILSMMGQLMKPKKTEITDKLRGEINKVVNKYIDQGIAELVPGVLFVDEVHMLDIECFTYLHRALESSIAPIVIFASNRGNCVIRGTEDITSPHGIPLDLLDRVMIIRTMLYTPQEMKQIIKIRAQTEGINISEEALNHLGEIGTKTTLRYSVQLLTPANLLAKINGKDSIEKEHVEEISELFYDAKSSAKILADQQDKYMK

| effect of a mutation on the interaction | Variant |
| --- | --- |
| with no effect | R361H |

Variants of: B1
Details: with rxra_human RXRA

| effect of a mutation on the interaction | Variant |
| --- | --- |
| with no effect | R361H |

Variants of: B1
Details: with sdha_human SDHA

| effect of a mutation on the interaction | Variant |
| --- | --- |
| with no effect | R361H |

Variants of: B1
Details: with setb1_human SETDB1, Q15047

| effect of a mutation on the interaction | Variant |
| --- | --- |
| with no effect | R361H |

Variants of: B1
Details: with sf3b1_human SF3B1, O75533
sf3b1_human SF3B1, O75533, sequence (O75533 whole entry): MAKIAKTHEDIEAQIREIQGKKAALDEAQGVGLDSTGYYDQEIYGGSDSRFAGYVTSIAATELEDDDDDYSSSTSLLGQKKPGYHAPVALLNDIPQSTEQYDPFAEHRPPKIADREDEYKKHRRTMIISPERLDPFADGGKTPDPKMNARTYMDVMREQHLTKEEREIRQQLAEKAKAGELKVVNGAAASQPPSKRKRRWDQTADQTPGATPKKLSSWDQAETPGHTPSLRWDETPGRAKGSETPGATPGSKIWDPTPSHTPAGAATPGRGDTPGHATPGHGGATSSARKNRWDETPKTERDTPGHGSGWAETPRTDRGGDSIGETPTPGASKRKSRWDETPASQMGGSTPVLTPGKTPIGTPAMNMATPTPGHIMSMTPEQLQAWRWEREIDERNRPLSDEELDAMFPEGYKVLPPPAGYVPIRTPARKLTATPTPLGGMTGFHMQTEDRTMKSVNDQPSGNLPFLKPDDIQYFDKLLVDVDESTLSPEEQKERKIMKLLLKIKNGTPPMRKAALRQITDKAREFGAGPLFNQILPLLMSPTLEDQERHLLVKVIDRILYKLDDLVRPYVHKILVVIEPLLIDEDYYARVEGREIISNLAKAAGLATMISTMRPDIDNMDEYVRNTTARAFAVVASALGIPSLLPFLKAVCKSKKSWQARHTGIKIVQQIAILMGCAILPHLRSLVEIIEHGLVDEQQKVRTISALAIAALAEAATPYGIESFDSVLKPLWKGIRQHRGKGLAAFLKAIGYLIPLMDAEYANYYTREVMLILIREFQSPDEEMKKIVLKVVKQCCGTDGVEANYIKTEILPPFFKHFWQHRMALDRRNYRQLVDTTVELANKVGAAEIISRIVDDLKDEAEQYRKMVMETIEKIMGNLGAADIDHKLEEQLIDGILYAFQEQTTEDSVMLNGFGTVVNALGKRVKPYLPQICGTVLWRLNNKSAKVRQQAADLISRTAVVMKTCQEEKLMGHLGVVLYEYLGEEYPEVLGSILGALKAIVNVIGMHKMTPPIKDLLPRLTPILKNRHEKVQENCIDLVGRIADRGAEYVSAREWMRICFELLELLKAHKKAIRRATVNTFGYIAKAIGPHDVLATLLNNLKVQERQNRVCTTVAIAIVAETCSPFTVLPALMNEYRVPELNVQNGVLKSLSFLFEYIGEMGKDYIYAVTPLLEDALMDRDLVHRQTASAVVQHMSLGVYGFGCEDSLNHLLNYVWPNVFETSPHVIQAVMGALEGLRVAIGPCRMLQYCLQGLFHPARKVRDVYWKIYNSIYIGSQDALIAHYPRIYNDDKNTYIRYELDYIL

| effect of a mutation on the interaction | Variant |
| --- | --- |
| with no effect | R361H |

Variants of: B1
Details: with skp2_human SKP2, Q13309

| effect of a mutation on the interaction | Variant |
| --- | --- |
| with no effect | R361H |

Variants of: B1
Details: with smad1_human SMAD1, Q15797
smad1_human SMAD1, Q15797, sequence (Q15797 whole entry): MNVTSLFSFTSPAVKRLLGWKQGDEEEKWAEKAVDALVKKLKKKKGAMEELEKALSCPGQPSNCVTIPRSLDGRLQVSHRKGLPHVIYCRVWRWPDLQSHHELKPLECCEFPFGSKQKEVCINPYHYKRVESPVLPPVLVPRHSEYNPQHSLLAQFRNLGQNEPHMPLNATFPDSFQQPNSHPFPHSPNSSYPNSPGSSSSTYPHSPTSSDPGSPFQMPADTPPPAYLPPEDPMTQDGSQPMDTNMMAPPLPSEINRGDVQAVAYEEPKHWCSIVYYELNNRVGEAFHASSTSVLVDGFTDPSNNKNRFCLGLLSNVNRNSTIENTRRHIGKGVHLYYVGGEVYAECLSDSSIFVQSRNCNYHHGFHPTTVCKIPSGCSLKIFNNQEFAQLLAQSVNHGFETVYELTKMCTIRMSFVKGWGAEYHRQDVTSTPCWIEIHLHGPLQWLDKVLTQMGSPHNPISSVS

| effect of a mutation on the interaction | Variant |
| --- | --- |
| with no effect | R361H |

Variants of: B1
Details: with smad2_human SMAD2, Q15796

| effect of a mutation on the interaction | Variant |
| --- | --- |
| with no effect | R361H |

Variants of: B1
Details: with smad3_human SMAD3, P84022
smad3_human SMAD3, P84022, sequence (P84022 whole entry, looked up): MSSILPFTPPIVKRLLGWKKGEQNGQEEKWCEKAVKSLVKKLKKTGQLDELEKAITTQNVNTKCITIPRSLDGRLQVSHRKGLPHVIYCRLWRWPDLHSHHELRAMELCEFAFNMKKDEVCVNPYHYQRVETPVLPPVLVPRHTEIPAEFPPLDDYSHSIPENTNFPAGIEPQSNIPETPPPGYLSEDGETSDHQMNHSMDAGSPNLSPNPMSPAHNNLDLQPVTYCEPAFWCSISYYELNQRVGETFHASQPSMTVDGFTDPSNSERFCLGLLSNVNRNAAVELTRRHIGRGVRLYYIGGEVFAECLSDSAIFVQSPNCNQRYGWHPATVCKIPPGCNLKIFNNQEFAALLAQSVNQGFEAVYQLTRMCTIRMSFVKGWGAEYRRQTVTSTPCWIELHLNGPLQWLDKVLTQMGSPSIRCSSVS

| effect of a mutation on the interaction | Variant |
| --- | --- |
| with no effect | R361H |

Variants of: B1
Details: with smca4_human SMARCA4, P51532

| effect of a mutation on the interaction | Variant |
| --- | --- |
| with no effect | R361H |

Variants of: B1
Details: with snf5_human SMARCB1, Q12824
snf5_human SMARCB1, Q12824, sequence (Q12824 whole entry): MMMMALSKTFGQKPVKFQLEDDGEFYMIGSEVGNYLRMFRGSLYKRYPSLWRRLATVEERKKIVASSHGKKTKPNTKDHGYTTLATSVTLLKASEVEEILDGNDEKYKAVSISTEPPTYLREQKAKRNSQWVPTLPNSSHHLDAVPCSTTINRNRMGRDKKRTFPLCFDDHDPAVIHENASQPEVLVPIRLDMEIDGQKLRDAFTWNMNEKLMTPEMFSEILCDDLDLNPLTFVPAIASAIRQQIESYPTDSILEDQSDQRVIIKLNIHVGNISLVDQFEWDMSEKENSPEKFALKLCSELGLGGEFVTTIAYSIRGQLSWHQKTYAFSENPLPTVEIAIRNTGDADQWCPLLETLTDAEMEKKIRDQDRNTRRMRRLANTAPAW

| effect of a mutation on the interaction | Variant |
| --- | --- |
| with no effect | R361H |

Variants of: B1
Details: with smo_human SMO

| effect of a mutation on the interaction | Variant |
| --- | --- |
| with no effect | R361H |

Variants of: B1
Details: with sox10_human SOX10, P56693

| effect of a mutation on the interaction | Variant |
| --- | --- |
| with no effect | R361H |

Variants of: B1
Details: with sox2_human SOX2, P48431

| effect of a mutation on the interaction | Variant |
| --- | --- |
| with no effect | R361H |

Variants of: B1
Details: with sox3_human SOX3, P41225
sox3_human SOX3, P41225, sequence (P41225 whole entry): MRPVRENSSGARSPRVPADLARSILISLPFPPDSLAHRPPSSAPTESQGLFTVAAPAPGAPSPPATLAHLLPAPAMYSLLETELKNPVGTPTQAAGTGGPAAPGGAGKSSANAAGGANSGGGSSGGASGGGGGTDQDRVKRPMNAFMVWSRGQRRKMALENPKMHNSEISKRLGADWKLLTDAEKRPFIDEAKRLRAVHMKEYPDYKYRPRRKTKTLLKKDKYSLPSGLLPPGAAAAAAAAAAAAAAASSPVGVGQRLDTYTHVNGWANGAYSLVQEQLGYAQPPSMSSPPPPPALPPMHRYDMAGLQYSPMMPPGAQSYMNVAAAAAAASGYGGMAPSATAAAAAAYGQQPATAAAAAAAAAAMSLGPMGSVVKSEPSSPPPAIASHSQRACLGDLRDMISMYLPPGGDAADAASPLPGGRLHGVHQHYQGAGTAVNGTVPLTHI

| effect of a mutation on the interaction | Variant |
| --- | --- |
| with no effect | R361H |

Variants of: B1
Details: with sox4_human SOX4, Q06945

| effect of a mutation on the interaction | Variant |
| --- | --- |
| with no effect | R361H |

Variants of: B1
Details: with sox9_human SOX9, P48436

| effect of a mutation on the interaction | Variant |
| --- | --- |
| with no effect | R361H |

Variants of: B1
Details: with spop_human SPOP

| effect of a mutation on the interaction | Variant |
| --- | --- |
| with no effect | R361H |

Variants of: B1
Details: with src_human SRC

| effect of a mutation on the interaction | Variant |
| --- | --- |
| with no effect | R361H |

Variants of: B1
Details: with stat3_human STAT3, P40763

| effect of a mutation on the interaction | Variant |
| --- | --- |
| with no effect | R361H |

Variants of: B1
Details: with stk38_human STK38, Q15208

| effect of a mutation on the interaction | Variant |
| --- | --- |
| with no effect | R361H |

Variants of: B1
Details: with ksyk_human SYK

| effect of a mutation on the interaction | Variant |
| --- | --- |
| with no effect | R361H |

Variants of: B1
Details: with eloc_human ELOC

| effect of a mutation on the interaction | Variant |
| --- | --- |
| with no effect | R361H |

Variants of: B1
Details: with tfe2_human TCF3, P15923

| effect of a mutation on the interaction | Variant |
| --- | --- |
| with no effect | R361H |

Variants of: B1
Details: with tead1_human TEAD1, P28347
tead1_human TEAD1, P28347, sequence (P28347 whole entry): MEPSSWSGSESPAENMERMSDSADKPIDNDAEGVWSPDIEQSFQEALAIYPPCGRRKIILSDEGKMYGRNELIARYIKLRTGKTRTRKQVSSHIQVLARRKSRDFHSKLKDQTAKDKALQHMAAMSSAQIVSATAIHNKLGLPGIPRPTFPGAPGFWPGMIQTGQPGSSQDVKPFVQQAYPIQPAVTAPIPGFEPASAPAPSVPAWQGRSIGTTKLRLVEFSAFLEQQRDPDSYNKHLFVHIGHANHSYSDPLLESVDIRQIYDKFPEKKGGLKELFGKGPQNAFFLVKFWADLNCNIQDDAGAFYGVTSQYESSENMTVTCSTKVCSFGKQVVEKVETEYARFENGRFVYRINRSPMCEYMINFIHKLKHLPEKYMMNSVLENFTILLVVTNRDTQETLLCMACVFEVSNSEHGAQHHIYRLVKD

| effect of a mutation on the interaction | Variant |
| --- | --- |
| with no effect | R361H |

Variants of: B1
Details: with tead2_human TEAD2, Q15562
tead2_human TEAD2, Q15562, sequence (Q15562 whole entry): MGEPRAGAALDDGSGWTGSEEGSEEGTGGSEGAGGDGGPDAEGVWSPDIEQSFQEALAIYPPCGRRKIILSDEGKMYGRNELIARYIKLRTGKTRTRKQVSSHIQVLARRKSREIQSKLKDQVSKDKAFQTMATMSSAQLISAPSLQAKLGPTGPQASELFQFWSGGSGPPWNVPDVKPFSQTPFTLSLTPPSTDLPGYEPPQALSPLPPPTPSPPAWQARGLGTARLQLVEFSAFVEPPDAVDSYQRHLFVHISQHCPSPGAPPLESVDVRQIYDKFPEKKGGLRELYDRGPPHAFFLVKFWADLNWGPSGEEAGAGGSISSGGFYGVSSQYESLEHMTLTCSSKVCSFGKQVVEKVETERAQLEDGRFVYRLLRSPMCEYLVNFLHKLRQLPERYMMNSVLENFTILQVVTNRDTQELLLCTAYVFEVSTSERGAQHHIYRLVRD

| effect of a mutation on the interaction | Variant |
| --- | --- |
| with no effect | R361H |

Variants of: B1
Details: with tead3_human TEAD3, Q99594

| effect of a mutation on the interaction | Variant |
| --- | --- |
| with no effect | R361H |

Variants of: B1
Details: with tgfr2_human TGFBR2, P37173
tgfr2_human TGFBR2, P37173, sequence (P37173 whole entry): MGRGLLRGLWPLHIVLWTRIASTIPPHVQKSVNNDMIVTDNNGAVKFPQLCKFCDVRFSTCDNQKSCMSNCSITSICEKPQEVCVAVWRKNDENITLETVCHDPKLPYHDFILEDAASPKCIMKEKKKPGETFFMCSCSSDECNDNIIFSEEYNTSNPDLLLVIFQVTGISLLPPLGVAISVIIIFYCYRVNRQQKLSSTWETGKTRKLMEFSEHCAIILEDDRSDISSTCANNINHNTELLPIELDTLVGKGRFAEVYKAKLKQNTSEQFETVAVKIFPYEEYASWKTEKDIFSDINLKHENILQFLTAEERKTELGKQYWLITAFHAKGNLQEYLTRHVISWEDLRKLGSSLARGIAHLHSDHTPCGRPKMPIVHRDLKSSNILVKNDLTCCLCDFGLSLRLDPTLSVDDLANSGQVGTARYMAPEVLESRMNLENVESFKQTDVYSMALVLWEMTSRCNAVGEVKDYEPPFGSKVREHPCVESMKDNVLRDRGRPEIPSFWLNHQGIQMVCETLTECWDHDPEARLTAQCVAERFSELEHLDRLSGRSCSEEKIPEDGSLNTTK

| effect of a mutation on the interaction | Variant |
| --- | --- |
| with no effect | R361H |

Variants of: B1
Details: with tnr14_human TNFRSF14, Q92956

| effect of a mutation on the interaction | Variant |
| --- | --- |
| with no effect | R361H |

Variants of: B1
Details: with tpx2_human TPX2, Q9ULW0

| effect of a mutation on the interaction | Variant |
| --- | --- |
| with no effect | R361H |

Variants of: B1
Details: with trrap_human TRRAP

| effect of a mutation on the interaction | Variant |
| --- | --- |
| with no effect | R361H |

Variants of: B1
Details: with tsc2_human TSC2, P49815

| effect of a mutation on the interaction | Variant |
| --- | --- |
| with no effect | R361H |

Variants of: B1
Details: with tshr_human TSHR

| effect of a mutation on the interaction | Variant |
| --- | --- |
| with no effect | R361H |

Variants of: B1
Details: with vhl_human VHL

| effect of a mutation on the interaction | Variant |
| --- | --- |
| with no effect | R361H |

Variants of: B1
Details: with wt1_human WT1, P19544

| effect of a mutation on the interaction | Variant |
| --- | --- |
| with no effect | R361H |

Variants of: B1
Details: with wwtr1_human WWTR1, Q9GZV5

| effect of a mutation on the interaction | Variant |
| --- | --- |
| with no effect | R361H |

Variants of: B1
Details: with xpo1_human XPO1, O14980

| effect of a mutation on the interaction | Variant |
| --- | --- |
| with no effect | R361H |

Variants of: B1
Details: with 1433b_human YWHAB

| effect of a mutation on the interaction | Variant |
| --- | --- |
| with no effect | R361H |

Variants of: B1
Details: with 1433e_human YWHAE

| effect of a mutation on the interaction | Variant |
| --- | --- |
| with no effect | R361H |

Variants of: B1
Details: with 1433z_human YWHAZ

| effect of a mutation on the interaction | Variant |
| --- | --- |
| with no effect | R361H |

Variants of: B1
Details: with smad3_human SMAD3, P84022
Remark: another data set of the same source

| effect of a mutation on the interaction | Variant |
| --- | --- |
| decreasing interaction strength | R361H |

Reference: IntAct's records for PubMed 35512704
